Patent US20260015316

System: ONECUT2 (OC2) HOX domain
Test: SPR
Settings: OC2 HOX fragment; DNA probe sequence not given

PEG10 promoter OC2 binding motif probe
Kd: 1 nM
